From patent publication US20160208233A1 (Harvard, published 2016)

Experiments:
Abz-LPETGK(Dnp)-CONH2 = target: T1, Abz-LPETGK(Dnp)-CONH2
T1 chain: LPETGK

Abz-LAETGK(Dnp)-CONH2 = target: T2, Abz-LAETGK(Dnp)-CONH2
T2 chain: LAETGK

Abz-LPESGK(Dnp)-CONH2 = target: T3, Abz-LPESGK(Dnp)-CONH2
T3 chain: LPESGK

Gly-Gly-Gly-COOH = target: T4, Gly-Gly-Gly-COOH
T4 chain: GGG

| Protein | Avg KM (Abz-LPETGK(Dnp)-CONH2) | Avg kcat/KM (Abz-LPETGK(Dnp)-CONH2) | Avg KM (Abz-LPESGK(Dnp)-CONH2) | Avg kcat/KM (Abz-LPESGK(Dnp)-CONH2) | Specificity, LPESG over LPETG (Abz-LPESGK(Dnp)-CONH2) | Km, LxExG (Abz-LPETGK(Dnp)-CONH2) | kcat/Km (Hz/M) (Abz-LPETGK(Dnp)-CONH2) | other results |
| --- | --- | --- | --- | --- | --- | --- | --- | --- |
| eSrtA(2A-9) H104A (protein) QAKPQIPKDKSKVAGYIEIPDADIKEPVYPGPATREQLNRGVCFADENESLDDQNISIAGHTFIDRPNYQFTNLKAAKPGSMVYFKVGNETRIYKMTSIRKVHPNAVEVLDEQEGKDKQLTLVTCDDYNEETGVWESRKIFVATEVK |  |  |  |  |  |  |  | preference for LPETG over LAETG (kcat/Km) (Abz-LPETGK(Dnp)-CONH2): resulting in a 60-fold preference for LPETG (SEQ ID NO: 4) over LAETG (SEQ ID NO: 5) |
| eSrtA(2A-9) V182I (protein) QAKPQIPKDKSKVAGYIEIPDADIKEPVYPGPATREQLNRGVCFHDENESLDDQNISIAGHTFIDRPNYQFTNLKAAKPGSMVYFKVGNETRIYKMTSIRKVHPNAVEVLDEQEGKDKQLTLITCDDYNEETGVWESRKIFVATEVK |  |  |  |  |  |  |  | preference for LAETG over LPETG (kcat/Km) (Abz-LAETGK(Dnp)-CONH2): lowers the activity level for LAETG (SEQ ID NO: 5), but maintains an 85-fold preference for LAETG (SEQ ID NO: 5) over LPETG (SEQ ID NO: 4) |
| eSrtA(2A-3) (protein) QAKPQIPKDKSKVAGYIEIPDADIREPVYPGPATREQLNRGVSFAEENESLDDQNISIAGHTSIGRPNYQFTNLRAAKKGSMVYFEVGNETRKYKMTSIRNVRPTAVEILDEQKGKDRQLTLFTCDDYNEETGVWETRKIFVATEVK | 2.1 mM | 1270 |  |  |  |  |  | Specificity (relative catalytic efficiency, fold), LPETG over LAETG (Abz-LPETGK(Dnp)-CONH2): 1.44 fold; Avg KM (Abz-LAETGK(Dnp)-CONH2): 1.62 mM; Avg kcat/KM (Abz-LAETGK(Dnp)-CONH2): 881 |
| eSrtA(4S-3) (protein) QAKPQIPKDKSKVAGYIEIPDADIKEPVYPGPATREQLSRGVSFTEENESLDDQNISITGHTSIGRPNYQFTNLRAAKKGSMVYFKVGNETRKYKMTSIRNVKPTAVEVLDEQEGKDEQLTLVTCDDYNEETGVWETRKIFVATEVK | 3.39 mM | 3.12 | 3.33 mM | 763 | 245 fold |  |  |  |
| wild-type S. aureus sortase A (protein) QAKPQIPKDKSKVAGYIEIPDADIKEPVYPGPATPEQLNRGVSFAEENESLDDQNISIAGHTFIDRPNYQFTNLKAAKKGSMVYFKVGNETRKYKMTSIRDVKPTDVEVLDEQKGKDKQLTLITCDDYNEKTGVWEKRKIFVATEVK |  |  |  |  |  | 5.18 mM | 236 Hz/M | Km (Abz-LPETGK(Dnp)-CONH2): 7.6 mM; kcat/Km (Abz-LPETGK(Dnp)-CONH2): 200 M⁻¹ s⁻¹; Km, GGG (uM); with LPETG peptide (Gly-Gly-Gly-COOH): 291 µM; Km,GGG (µM); listed substrate LPETG (Gly-Gly-Gly-COOH): 211 µM |
| eSrtA(4S-3.5) (protein) QAKPQIPKDKSKVAGYIEIPDADIKEPVYPGPATREQLNRGVSFTEENESLDDQNISITGHTFIDRPNYQFTNLKAAKKGSMVYFKVGNETRKYKMTSIRNVKPTAVEVLDEQKGKDKQLTLVTCDDYNEETGVWETRKIFVATEVK | 39.3 mM | 133 | 38.8 mM | 193 | 1.45 fold |  |  | Km, LxExG (Abz-LPESGK(Dnp)-CONH2): 7.31 mM; kcat/Km (Hz/M) (Abz-LPESGK(Dnp)-CONH2): 154 Hz/M |
| eSrtA(4S-4) (protein) QAKPQIPKDKSKVAGYIEIPDADIKEPVYPGPATREQLNRGVSFVEENESLDDQNISITGHTSIDRPNYQFTNLKAAKKGSMVYFKVGNETRKYKMTSIRNVKPTAVEVLDEQKGKDKQLTLVTCDDYNEETGVWETRKIFVATEVK | 0.491 mM | 219 | 1.56 mM | 487 | 2.22 fold | 0.339 mM | 283 Hz/M | Km, LxExG (Abz-LPESGK(Dnp)-CONH2): 1.41 mM; kcat/Km (Hz/M) (Abz-LPESGK(Dnp)-CONH2): 517 Hz/M; specificity (relative cat. Efficiency, fold), LPESG over LPETG (Abz-LPESGK(Dnp)-CONH2): 1.82 fold |
| 2A.6B (protein) QAKPQIPKDKSKVAGYIEIPDADIKEPVYPGPATREQLNKGVSFHEENESLDDQNISIAGHTFIDRPNYQFTNLKAAKVGSMVYFKVGNETRKYKMTSIRKVRPTAVEVLDEQKGKDKQLTLVTCDDYNEETGVWETRKIFVATEVK |  |  |  |  |  |  |  | Km, GGG (uM); with LAETG peptide (Gly-Gly-Gly-COOH): 642 µM; Km, LxExG (Abz-LAETGK(Dnp)-CONH2): 0.31 mM; kcat/Km (Hz/M) (Abz-LAETGK(Dnp)-CONH2): 2270 Hz/M |
| eSrtA(2A-4) (protein) QAKPQIPKDKSKVAGYIEIPDADIKEPVYPGPATREQLNRGVSFHEENESLDDQNISIAGHTFIDRPNYQFTNLKAAKKGSMVYFKVGNETRKYKMTSIRNVRPTAVEILDEQKGKDKQLTLVTCDDYNEETGVWETRKIFVATEVK | 5.18 mM | 9.69 |  |  |  | 11.7 mM | 8.01 Hz/M | Avg KM (Abz-LAETGK(Dnp)-CONH2): 3.72 mM; Avg kcat/KM (Abz-LAETGK(Dnp)-CONH2): 534; Km, LxExG (Abz-LAETGK(Dnp)-CONH2): 3.25 mM; Specificity (relative catalytic efficiency, fold), LAETG over LPETG (Abz-LAETGK(Dnp)-CONH2): 55.1 fold; increase in kcat/Km, LAETG substrate against LPETG substrate (Abz-LAETGK(Dnp)-CONH2): from ˜40-fold (2Ar4) to ˜125-fold (2Ar5) increase in kcat/Km; kcat/Km (Hz/M) (Abz-LAETGK(Dnp)-CONH2): 585 Hz/M; specificity (relative cat. Efficiency, fold), LAETG over LPETG (Abz-LAETGK(Dnp)-CONH2): 73 fold |
